From US20250289873A1 (BROADWING BIO, published 2025) come the findings set out here.

Numbering of substitutions follows the chain as printed.

Assay [1] has as its target T1, Human CFHL1-Y402H-His (ATX-P-421) (human).
T1 construct: also called human CFHL-1 (Y402H) protein
T1 chain: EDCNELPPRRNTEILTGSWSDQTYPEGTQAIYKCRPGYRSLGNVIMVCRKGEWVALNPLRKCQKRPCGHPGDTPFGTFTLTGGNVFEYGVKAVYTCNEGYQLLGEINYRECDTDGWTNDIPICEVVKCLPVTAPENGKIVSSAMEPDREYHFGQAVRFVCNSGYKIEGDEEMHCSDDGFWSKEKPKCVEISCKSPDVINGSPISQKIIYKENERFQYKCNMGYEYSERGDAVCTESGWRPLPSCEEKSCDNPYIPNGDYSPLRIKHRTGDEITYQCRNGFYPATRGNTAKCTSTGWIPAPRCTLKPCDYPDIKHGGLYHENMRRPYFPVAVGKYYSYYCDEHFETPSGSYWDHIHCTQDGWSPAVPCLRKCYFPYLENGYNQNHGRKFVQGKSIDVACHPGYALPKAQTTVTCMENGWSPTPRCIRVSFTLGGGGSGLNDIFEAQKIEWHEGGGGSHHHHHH
The assay can be described thus: Carterra LSA biosensor, mAb printed on chip, cutoff set by isotype control. The protocol: (§1) Experiments were also conducted to determine the reactivity of the CFHR4 antibodies with the human CFHR3 protein (FIG. 9). The binding experiments were performed on Carterra LSA with a running buffer of PBS pH 7.40, 1% BSA, 0.05% Tween20. Antibodies were covalently printed on an HC30M chip. Chip was activated with 33 mM s-NHS and 133 mM EDC in 100 mM MES pH 5.5 for 7 minutes. Antibodies at 10 mg/ml in acetic acid buffer pH 4.5 were used for printing for 10 min. The printed chip was then quenched with 1 M ethanolamine pH 8.5 for 7 min. For the reactivity assay, ATX-P-58, human CFHL3-His, at 550 nM was tested with 5 min association followed by 15 min dissociation. Results were processed and analyzed in Carterra LSA Kinetics Software. The data was referenced with the interstitial reference spots and double-referenced to a buffer cycle, and then the responses (nm) after association were reported. Isotype control was used to determine the cutoff response for positive binding.
as §1, with “CFHL-1 (Y402H)” for “CFHR3”, “10).” for “9).”, “ATX-P-421,” for “ATX-P-58,”, “CFHL1-Y402H-His,” for “CFHL3-His,”, “380” for “550”

Assay [2] concerns the target T2, human CFHL3-His (ATX-P-58) (human, UniProt Q02985 19-330).
T2 construct: also called human CFHR3 protein; CFHR3; not shown: C-terminal His tag (and linker)
T2 sequence (looked up): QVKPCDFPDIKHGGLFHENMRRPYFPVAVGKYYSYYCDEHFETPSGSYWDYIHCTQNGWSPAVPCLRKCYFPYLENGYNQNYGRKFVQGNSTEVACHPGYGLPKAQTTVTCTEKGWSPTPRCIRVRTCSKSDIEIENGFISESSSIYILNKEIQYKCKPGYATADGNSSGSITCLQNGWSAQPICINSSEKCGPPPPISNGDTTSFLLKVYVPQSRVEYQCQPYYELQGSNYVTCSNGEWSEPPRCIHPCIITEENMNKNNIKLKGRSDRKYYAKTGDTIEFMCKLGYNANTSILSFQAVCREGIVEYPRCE
The assay can be described thus: Carterra LSA biosensor, mAb printed on chip, human CFHL3-His at 550 nM. The protocol: as §1

Assay [3] addresses T1, Human CFHL1-Y402H-His (ATX-P-421). Kind of assay: Carterra LSA biosensor, mAb printed on chip, human CFHL1-Y402H-His at 380 nM. The protocol:
as §1, with “CFHL-1 (Y402H)” for “CFHR3”, “10).” for “9).”, “ATX-P-421,” for “ATX-P-58,”, “CFHL1-Y402H-His,” for “CFHL3-His,”, “380” for “550”

The target of assay [4] is T2, human CFHL3-His (ATX-P-58). The assay can be described thus: Carterra LSA biosensor, mAb printed on chip, cutoff set by isotype control. The protocol:
as §1
as §1, with “CFHL-1 (Y402H)” for “CFHR3”, “10).” for “9).”, “ATX-P-421,” for “ATX-P-58,”, “CFHL1-Y402H-His,” for “CFHL3-His,”, “380” for “550”

B1: ATX-P-603 (antibody, human IgG1, kappa, N297A, V domains shown)
VH: QVQLQESGPGLVKPSGTLSLTCAVSGGSISGSHWWSWFRQPPGKGLEWIGEIYHTGSTNKNPSLKSRVTISLDKSKNQFSLRLRSVTDADTAVYYCARDQYTGSPRDAFDIWGQGTMVTVSS
VL: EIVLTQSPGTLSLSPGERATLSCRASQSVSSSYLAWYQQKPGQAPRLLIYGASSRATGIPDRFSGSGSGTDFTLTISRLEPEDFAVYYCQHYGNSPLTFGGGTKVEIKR
Turning to B1, the binding result in assay [1] was “no binding (tested: 380 nM)”.

B2: ATX-P-588 (antibody, human IgG1, kappa, N297A, V domains shown)
VH: EVQLVESGGGLVQPGRSLRLSCAASGFTFEDYAMHWVRQAPGKGLEWVSGISWNSGSIGYADSVKGRFTISRDNAKKSLYLQMNSLRAEDTALYYCTKDRDDGYNYAGVFDYWGQGTLVTVSS
VL: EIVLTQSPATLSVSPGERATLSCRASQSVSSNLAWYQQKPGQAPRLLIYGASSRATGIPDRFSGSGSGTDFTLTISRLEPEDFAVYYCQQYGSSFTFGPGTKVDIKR
B2: the binding result in assay [2] and in assay [3] was “binds” in each case.

B3: ATX-P-600 (antibody, human IgG1, kappa, N297A, V domains shown)
VH: B2 VH with E30D, A40V, K43R, N54S, S55G, A75S, K77N, D101E, A107G
VL: EIVLTQSPGTLSLSPGERATLSCRASQNVRGSYLAWYQQKPGQAPRLLIYGASNRATDIPDRFSGSGSGTDFTLTISGLEPEDFVVYYCQQYGSSYTFGQGTKVEIKR
Take B3: the binding result in assay [2] and in assay [3] was “binds” throughout.

B4: ATX-P-569 (antibody, human IgG1, kappa, N297A, V domains shown)
VH: EVQLVESGGGLAQFGRSLRLSCAASGFTFDDYAMHWLRQAPGMGLEWVSGISWNSGSIGYADSVKGRFTIARDNAKNSVHLQMNSLRAEDTALYYCAKDIGNGYTKGDVFDIWGQGTMVTVSS
VL: DIQMTQSPSTLSASVGDSVTITCRASQNIITWLAWYQQKPGKAPNLLIYKASSLESGVPSRFSGSGSGTEFTLTISSLQPDDFATYYCQQYSSYSYTFGQGTKLEIKR
As for B4, the binding result in assay [2] was “binds”; in assay [1], “no binding (tested: 380 nM)”.

B5: ATX-P-561 (antibody, human IgG1, kappa, N297A, V domains shown)
VH: QVQLQQSGPGLVKPSQTLSLTCAISGDSVSSNSAAWNWIRQSPSRGLEWLGRTYYRSKWYNGYAVSMKSRITINPDTSKNQFSLQLNSVTPEDTAMYYCAREGVGATTGFDYWGQGTLVTVSS
VL: DIQMTQSPSSLSASVGDRVTITCRASQGISSWLTWYQQKPGKAPKLLIYAASSLQGGVPSRFSGSGSGTDFTLTISSLQPEDFATYYCQQANSFPPTFGQGTKVEIKR
With B5, the binding result in assay [2] and in assay [3] was “binds” in each case.

B6: ATX-P-610 (antibody, human IgG1, kappa, N297A, V domains shown)
VH: QVQLQQSGPGLVKSSQTLSITCAISGDSVSSNSAAWNWIRQSPSRGLEWLGRTYYRSKWYNDYALSVKSRIIIKSDTSKNQFSLQLNSVTPEDTAVYYCAREPGIAAPGPFDYWGQGSLVTVSS
VL: B5 VL with L11V, T34A, G56S, A91N, N92Y, S93R, F94T, P96I, K103R, V104L
In the case of B6, the binding result in assay [2] is listed as “binds”; in assay [1], “no binding (tested: 380 nM)”.

B7: ATX-P-594 (antibody, human IgG1, kappa, N297A, V domains shown)
VH: QVQLQQSGPGLVKPSQTLSLTCAISGDSVSSNSASWNWIRQSPSRGLEWLGTTYYRSKWFNVYAVSVKSRITINPDTSKNQFSLHLNSVTPEDTAIYFCTRDRGDLLHWYFDLWGRGTLVTVSS
VL: EIVLTQSPGTLSLSPGERATLSCRASQSVSSSYLAWYQQKPGQSPRLLIYGASSRATGIPDRFSGSGSGTDFTLTISRLEPEDFAVYYCQQYGRSVTFGGGTKLEIKR
Regarding B7, the binding result in assay [2] and in assay [3] was “binds” each time.

B8: ATX-P-587 (antibody, human IgG1, kappa, N297A, V domains shown)
VH: QVQLQQSGPGLVKPSQTLSLTCAISGDSVSSNSAAWNWIRQSPSRGLEWLGKTYYRSKWYNYYALSVKSRITINPDTSKNQFSLHLNSVTPEDTAVYYCARDGDYYLPSPFDLWGHGTMVTVSS
VL: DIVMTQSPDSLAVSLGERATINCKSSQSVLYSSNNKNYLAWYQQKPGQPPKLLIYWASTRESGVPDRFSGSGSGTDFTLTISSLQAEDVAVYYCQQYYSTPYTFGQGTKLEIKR
For B8, the binding result in assay [2] and in assay [3] was “binds” each time.

B9: ATX-P-596 (antibody, human IgG1, kappa, N297A, V domains shown)
VH: EVQLVESGGGLVQPGRSLRLSCAASGFSFDDYAMHWVRQVPGKGLEWVSGISWTGGSVGYADPVKGRFTISRDNAKNSLYLQMNSLRPEDTALYYCAKDMGDGYSRNWPFDYWGQGTLVTVSS
VL: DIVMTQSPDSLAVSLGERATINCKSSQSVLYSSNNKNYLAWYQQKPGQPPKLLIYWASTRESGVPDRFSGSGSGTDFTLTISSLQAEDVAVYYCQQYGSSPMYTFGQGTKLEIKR
B9: the binding result in assay [2] and in assay [3] was “binds” throughout.

B10: ATX-P-570 (antibody, human IgG1, kappa, N297A, V domains shown)
VH: QVQLQESGPGLVKPSETMSLTCTVSGGSFTGYYWSWIRQPPGKGLEWIGYVHYSGGTKSNPSLKSRVTISVDTSKNQFSLKLSSVTAADTAVYYCARERYEWNSYFDYWGQGTLVTVSS
VL: not shown
Regarding B10, the binding result in assay [3] is “binds”; in assay [4], “no binding (tested: 550 nM)”.

B11: ATX-P-592 (antibody, human IgG1, kappa, N297A, V domains shown)
VH: QVQLQQSGPGLVKPSQTLSLTCAISGDSVSSNSAAWNWIRQSPSRGLEWLGRTYYRSKWYSDYPLSVKSRITINPDTSKNQFSLQLNSVTPEDTAVYYCARDSGIVETTPFDYWGQGTLVTVSS
VL: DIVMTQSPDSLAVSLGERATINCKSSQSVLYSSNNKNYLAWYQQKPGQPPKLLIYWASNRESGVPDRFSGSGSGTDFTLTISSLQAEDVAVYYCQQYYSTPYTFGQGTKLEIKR
Consider B11, for which the binding result in assay [2] is “binds”; in assay [1] it was “no binding (tested: 380 nM)”.

B12: ATX-P-572 (antibody, human IgG1, kappa, N297A, V domains shown)
VH: B11 VH with R52M, D62V, Y63F, P64A, L65V, P75T, D102E, S103G, E107G, T108A
VL: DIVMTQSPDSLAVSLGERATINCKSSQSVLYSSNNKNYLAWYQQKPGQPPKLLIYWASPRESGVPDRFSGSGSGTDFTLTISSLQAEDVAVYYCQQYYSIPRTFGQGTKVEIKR
Consider B12, for which the binding result in assay [2] is “binds”; in assay [1] it was “no binding (tested: 380 nM)”.

B13: ATX-P-595 (antibody, human IgG1, kappa, N297A, V domains shown)
VH: B11 VH with Y60F, S61N, P64A, Q85H, D102E, S103P, E107A, T108P, T109G
VL: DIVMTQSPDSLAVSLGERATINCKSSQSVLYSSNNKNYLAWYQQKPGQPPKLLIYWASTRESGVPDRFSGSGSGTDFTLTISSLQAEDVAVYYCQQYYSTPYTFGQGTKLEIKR
Consider B13, for which the binding result in assay [2] and in assay [3] was “binds” in each case.

B14: ATX-P-608 (antibody, human IgG1, kappa, N297A, V domains shown)
VH: QVQLQESGPGLVKPSGTLSLTCAVSGGSISSSNWWSWVRQSPGKGLEWIGEIYHTGSTNKKPSLKSRVIISVDKSKNQFSLKLISVNAADTAIYYCARDREGGTTEAFDIWGQGTMVTVSS
VL: EIVMTQSPATLSVSPGERATLSCRASQSVSSNLAWYQQKPGQAPRLLIYGASTRATGIPVRFSGSGSGTQFTLTISSLQSEDFAVYYCQQYDNWRTFGQGTRLEIKR
On to B14, for which the figures for the binding result in assay [2] and in assay [1] were “binds” and “no binding (tested: 380 nM)”, respectively.

B15: ATX-P-609 (antibody, human IgG1, kappa, N297A, V domains shown)
VH: QVQLQESGPGLVKPSGTLSLTCAVSGGSISSSNWWSWVRQPPGKGLEWIGEIYHSGSTNYNPSLKSRVTISVDKSKNQFSLKLRSVTAADTAVYYCARDQLSSGPTDAFDIWGQGTMVTVSS
VL: B14 VL with R102K
In the case of B15, the binding result in assay [2] is “binds”; in assay [1], “no binding (tested: 380 nM)”.

B16: ATX-P-571 (antibody, human IgG1, kappa, N297A, V domains shown)
VH: QVQLQESGPGLVKPSGTLSLTCAVSGGSISSRNWWSWVRQPPGKGLEWIGEIYHGGTTNYNPSLKSRVTISVDKSKNQFSLKLSSVTAADTAVYYCARGGLRLGELSPNAFDIWGQGTMVTVSS
VL: DIQMTQSPSSLSASVGDRVTITCRASQSISSYLNWYQQKPGKAPKVLIYAASSLQSGIPSRFSGSGSGTDFTLTISSLQPEDFATYYCQETYSVPLTFGGGTKVEIKR
B16: the binding result in assay [3] is given as “binds”; in assay [4], “no binding (tested: 550 nM)”.
